In PMC3624988 (Developmental cell, 2013):
Values belong to the binder of their own block, whether it stands above or below them.

Biological target: Flag:Jub (full length Ajuba LIM protein Jub, 1-729aa) (Drosophila, UniProt Q9VY77 1-728)
Experiment: co-IP

Flag:Jub (full length Ajuba LIM protein Jub, 1-729aa), sequence (Q9VY77 whole entry): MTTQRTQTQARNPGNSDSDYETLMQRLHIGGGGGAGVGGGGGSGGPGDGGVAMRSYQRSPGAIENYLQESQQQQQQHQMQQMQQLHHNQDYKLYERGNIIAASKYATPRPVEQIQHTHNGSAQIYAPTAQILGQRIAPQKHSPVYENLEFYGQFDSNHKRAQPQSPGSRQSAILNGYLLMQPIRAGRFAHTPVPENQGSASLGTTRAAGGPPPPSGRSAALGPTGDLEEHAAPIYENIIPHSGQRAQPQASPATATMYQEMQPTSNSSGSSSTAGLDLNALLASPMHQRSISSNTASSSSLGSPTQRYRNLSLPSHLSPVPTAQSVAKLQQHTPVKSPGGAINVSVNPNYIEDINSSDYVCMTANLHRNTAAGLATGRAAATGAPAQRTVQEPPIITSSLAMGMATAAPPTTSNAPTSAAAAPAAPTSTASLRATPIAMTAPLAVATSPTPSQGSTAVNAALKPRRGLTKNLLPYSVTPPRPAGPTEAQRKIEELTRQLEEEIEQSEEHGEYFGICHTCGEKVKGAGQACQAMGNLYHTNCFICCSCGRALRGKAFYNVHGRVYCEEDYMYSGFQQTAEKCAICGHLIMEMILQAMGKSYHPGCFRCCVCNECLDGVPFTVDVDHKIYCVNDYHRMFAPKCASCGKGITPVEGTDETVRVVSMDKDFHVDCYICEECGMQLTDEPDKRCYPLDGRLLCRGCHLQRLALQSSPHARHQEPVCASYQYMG

fold change of binding with Ras-MAPK activation against without: 2 fold
B1: Myc:Wts (Myc-tagged Warts) (enzyme, Drosophila, UniProt Q9VA38 1-1105, looked up)
chain: MHPAGEKRGGRPNDKYTAEALESIKQDLTRFEVQNNHRNNQNYTPLRYTATNGRNDALTPDYHHAKQPMEPPPSASPAPDVVIPPPPAIVGQPGAGSISVSGVGVGVVGVANGRVPKMMTALMPNKLIRKPSIERDTASSHYLRCSPALDSGAGSSRSDSPHSHHTHQPSSRTVGNPGGNGGFSPSPSGFSEVAPPAPPPRNPTACSAATPPPPVPPTSQAYVKRRSPALNNRPPAIAPPTQRGNSPVITQNGLKNPQQQLTQQLKSLNLYPGGGSGAVVEPPPPYLIQGGAGGAAPPPPPPSYTASMQSRQSPTQSQQSDYRKSPSSGIYSATSAGSPSPITVSLPPAPLAKPQPRVYQARSQQPIIMQSVKSTQVQKPVLQTAVAPQSPSSASASNSPVHVLAAPPSYPQKSAAVVQQQQQAAAAAHQQQHQHQQSKPPTPTTPPLVGLNSKPNCLEPPSYAKSMQAKAATVVQQQQQQQQQQQQVQQQQVQQQQQQQQQQLQALRVLQAQAQRERDQRERDQRERERDQQKLANGNPGRQMLPPPPYQSNNNNNSEIKPPSCNNNNIQISNSNLATTPPIPPAKYNNNSSNTGANSSGGSNGSTGTTASSSTSCKKIKHASPIPERKKISKEKEEERKEFRIRQYSPQAFKFFMEQHIENVIKSYRQRTYRKNQLEKEMHKVGLPDQTQIEMRKMLNQKESNYIRLKRAKMDKSMFVKLKPIGVGAFGEVTLVSKIDTSNHLYAMKTLRKADVLKRNQVAHVKAERDILAEADNNWVVKLYYSFQDKDNLYFVMDYIPGGDLMSLLIKLGIFEEELARFYIAEVTCAVDSVHKMGFIHRDIKPDNILIDRDGHIKLTDFGLCTGFRWTHNSKYYQENGNHSRQDSMEPWEEYSENGPKPTVLERRRMRDHQRVLAHSLVGTPNYIAPEVLERSGYTQLCDYWSVGVILYEMLVGQPPFLANSPLETQQKVINWEKTLHIPPQAELSREATDLIRRLCASADKRLGKSVDEVKSHDFFKGIDFADMRKQKAPYIPEIKHPTDTSNFDPVDPEKLRSNDSTMSSGDDVDQNDRTFHGFFEFTFRRFFDDKQPPDMTDDQAPVYV

fold change of binding with Ras-MAPK activation against without: 3 fold
B2: Sav:V5 (V5-tagged Salvador) (natural protein, Drosophila, UniProt Q9VCR6 1-608, looked up)
chain: MNYLTILLCNRKPTMLSRRNKEKSQHKEGVVGKYMKKDTPPDISVINVWSDQRAKKKSLQRCASTSPSCEFHPRSSSTSRNTYSCTDSQPDYYHARRAQSQMPLQQHSHSHPHSLPHPSHPHVRSHPPLPPHQFRASSNQLSQNSSNYVNFEQIERMRRQQSSPLLQTTSSPAPGAGGFQRSYSTTQRQHHPHLGGDSYDADQGLLSASYANMLQLPQRPHSPAHYAVPPQQQQHPQIHQQHASTPFGSTLRFDRAAMSIRERQPRYQPTSSPMQQQQQQQQQQQQQLQHTQLAAHLGGSYSSDSYPIYENPSRVISMRATQSQRSESPIYSNTTASSATLAVVPQHHHQGHLAVPSGSGGGSLSGSGRGGSSGSVRGASTSVQSLYVPPRTPPSAVAGAGGSANGSLQKVPSQQSLTEPEELPLPPGWATQYTLHGRKYYIDHNAHTTHWNHPLEREGLPVGWRRVVSKMHGTYYENQYTGQSQRQHPCLTSYYVYTTSAEPPKAIRPEASLYAPPTHTHNALVPANPYLLEEIPKWLAVYSEADSSKDHLLQFNMFSLPELEGFDSMLVRLFKQELGTIVGFYERYRRALILEKNRRAGQNQNQNQ
